Data on 96 variants can be found in the supplement of paper PMC10567573.

First the molecules themselves.
B1: ZNF207 (parent)
chain: YQGGPPRPPMGMRPPVMSQGGRY
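Also: lentivirally expressed fusions sorted by FACS into six bins by GFP to DsRed ratio, PSI derived from sequencing read proportions per bin multiplied by bin number.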

The variants in this series derive from B1. Kind of series: protein stability index of a GFP-peptide fusion (GPS, HEK-293T) (PSI 1-6); higher = more stable. The conditions noted are these: c terminus: native.
For the variant YQGGPPRPPMGMMPPVMSQGGRY [R13M], the protein stability index stood at 2.1.

As to YQGGPPRPPMGMWPPVMSQGGRY [R13W], the protein stability index was determined as 1.79.

On to YQGGPPRPPMGMSPPVMSQGGRY [R13S], for which the protein stability index was determined as 1.96.

With YQGGPPRPPMGMFPPVMSQGGRY [R13F], the protein stability index turned out to be 2.23.

Consider YQGGPPRPPMGMIPPVMSQGGRY [R13I], for which the protein stability index is 2.76.

For YQGGPPRPPMGMRPPVYSQGGRY [M17Y], the protein stability index amounted to 1.75.

For the variant YQGGPPRPPMGMRPPVSSQGGRY [M17S], the protein stability index turned out to be 2.62.

Consider YQGGPPRPPMGMRPPVKSQGGRY [M17K], for which the protein stability index turned out to be 2.85.

Consider YQGGPPRPPMGMRPPVDSQGGRY [M17D], for which the protein stability index came to 2.86.

Regarding YQGGPPRPPMGMRPPVQSQGGRY [M17Q], the protein stability index turned out to be 2.56.

Regarding YQGGPPRPPMGMRPPVVSQGGRY [M17V], the protein stability index came to 1.49.

Turning to YQGGPPRPPMGMRPPVCSQGGRY [M17C], the protein stability index amounted to 4.

As to YQGGPPRPPMGMRPPVLSQGGRY [M17L], the protein stability index is 1.52.

With YQGGPPRPPMGMRPPVWSQGGRY [M17W], the protein stability index stood at 1.67.

As to YQGGPPRPPMGMRPPVGSQGGRY [M17G], the protein stability index worked out at 2.42.

As for YQGGPPRPPMGMRPPVFSQGGRY [M17F], the protein stability index turned out to be 2.17.

With YQGGPPRPPMGIRPPVMSQGGRY [M12I], the protein stability index is 2.25.

Consider YQGGPPRPPMGTRPPVMSQGGRY [M12T], for which the protein stability index was 2.64.

Consider YQGGPPRPPMGERPPVMSQGGRY [M12E], for which the protein stability index was 2.88.

With YQGGPPRPPMGGRPPVMSQGGRY [M12G], the protein stability index was 2.05.

With YQGGPPRPPMGVRPPVMSQGGRY [M12V], the protein stability index worked out at 2.79.

With YQGGPPRPPMGRRPPVMSQGGRY [M12R], the protein stability index was found to be 1.35.

As to YQGGPPRPPMGSRPPVMSQGGRY [M12S], the protein stability index stood at 2.64.

Turning to YQGGPPRPPMGKRPPVMSQGGRY [M12K], the protein stability index came to 2.34.

Turning to YQGGPPRPPMGMRPPVMSQGGSY [R22S], the protein stability index is 1.7.

Turning to YQGGPPRPPMGMRPPVMSQGGQY [R22Q], the protein stability index amounted to 1.43.

Consider YQGGPPRPPMGMRPPVMSQGGFY [R22F], for which the protein stability index worked out at 1.21.

As for YQGGPPRPPMGMRPPVMSQGGKY [R22K], the protein stability index was 1.99.

Regarding YQGGPPRPPMGMRPPVMSQGGMY [R22M], the protein stability index was found to be 1.69.

As for YQGGPPRPPMGMRPPVMSQGGHY [R22H], the protein stability index is 1.91.

As to YQGGPPRPPMGMRPPVMSQGGTY [R22T], the protein stability index turned out to be 1.89.

As to YQGGPPRPPMGMRPPVMSQGGDY [R22D], the protein stability index turned out to be 1.89.

As for YQGGPPRPPMGMRPPVMSNGGRY [Q19N], the protein stability index is 2.56.

Take YQGGPPRPPMGMRPPVMSKGGRY [Q19K]: the protein stability index was found to be 2.18.

For the variant YQGGPPRPPMGMRPPVMSLGGRY [Q19L], the protein stability index worked out at 1.46.

Consider YQGGPPRPPMGMRPPVMSTGGRY [Q19T], for which the protein stability index is 2.39.

Regarding YQGGPPRPPMGMRPPVMSRGGRY [Q19R], the protein stability index was 2.17.

Take YQGGPPRPPMGMRPPVMSHGGRY [Q19H]: the protein stability index amounted to 4.08.

For YQGGPPRPPMGMRPPVMSPGGRY [Q19P], the protein stability index worked out at 1.9.

Turning to YQGGPPRPPMGMRPPVMSEGGRY [Q19E], the protein stability index was 2.17.

YQGGPPRPPMGMRKPVMSQGGRY [P14K]: the protein stability index is 1.43.

Turning to YQGGPPRPPMGMRAPVMSQGGRY [P14A], the protein stability index is 1.47.

For YQGGPPRPPMGMRGPVMSQGGRY [P14G], the protein stability index turned out to be 2.35.

On to YQGGPPRPPMGMRCPVMSQGGRY [P14C], for which the protein stability index turned out to be 2.27.

In the case of YQGGPPRPIMGMRPPVMSQGGRY [P9I], the protein stability index was determined as 2.91.

With YQGGPPRPKMGMRPPVMSQGGRY [P9K], the protein stability index turned out to be 1.73.

Consider YQGGPPRPHMGMRPPVMSQGGRY [P9H], for which the protein stability index came out at 1.41.

On to YQGGPPRPGMGMRPPVMSQGGRY [P9G], for which the protein stability index turned out to be 2.84.

In the case of YQGGPPRPNMGMRPPVMSQGGRY [P9N], the protein stability index came out at 1.44.

Consider YQGGPPRPMMGMRPPVMSQGGRY [P9M], for which the protein stability index came to 1.12.

As for YQGGPPRPWMGMRPPVMSQGGRY [P9W], the protein stability index amounted to 4.64.

Take YQGGPPRPAMGMRPPVMSQGGRY [P9A]: the protein stability index was determined as 1.83.

As to YQGGPPRPTMGMRPPVMSQGGRY [P9T], the protein stability index was 2.49.

YQGGPPRPLMGMRPPVMSQGGRY [P9L]: the protein stability index is 1.28.

With YQGGPPRPVMGMRPPVMSQGGRY [P9V], the protein stability index is 1.68.

In the case of YQGGPPRPRMGMRPPVMSQGGRY [P9R], the protein stability index came out at 1.87.

YQGGPPRPPMGMRPTVMSQGGRY [P15T]: the protein stability index amounted to 1.61.

As to YQGGPPRPPMGMRPVVMSQGGRY [P15V], the protein stability index was found to be 3.12.

YQGGPPRPPMGMRPNVMSQGGRY [P15N]: the protein stability index is 1.72.

YQGGPPRPPMGMRPHVMSQGGRY [P15H]: the protein stability index came out at 2.71.

Turning to YQGGPPRPPMGMRPKVMSQGGRY [P15K], the protein stability index stood at 1.09.

Regarding YQGGPPRPPMGMRPFVMSQGGRY [P15F], the protein stability index came to 1.58.

As for YQGGPPRPPMGMRPEVMSQGGRY [P15E], the protein stability index worked out at 2.2.

For YQGGPPRPPMGMRPQVMSQGGRY [P15Q], the protein stability index came out at 2.65.

For YQGGPPRPPMGMRPDVMSQGGRY [P15D], the protein stability index came to 2.27.

Take YQGGPPRPPMGMRPSVMSQGGRY [P15S]: the protein stability index stood at 2.23.

With YQGGPPRPPMGMRPRVMSQGGRY [P15R], the protein stability index was 2.07.

Consider YQGGPPRPPMGMRPPVMSQGQRY [G21Q], for which the protein stability index was determined as 2.1.

As for YQGGPPRPPMGMRPPVMSQGPRY [G21P], the protein stability index was 3.63.

In the case of YQGGPPRPPMGMRPPVMSQGRRY [G21R], the protein stability index amounted to 2.27.

YQGGPPRPPMGMRPPVMSQGCRY [G21C]: the protein stability index is 2.24.

In the case of YQGGPPRPPMGMRPPVMSQGSRY [G21S], the protein stability index was 1.82.

YQGGPPRPPMGMRPPVMSQGFRY [G21F]: the protein stability index is 1.72.

As for YQGGPPRPPMGMRPPVMSQGHRY [G21H], the protein stability index was 1.77.

Regarding YQGGPPRPPMGMRPPVMSQGVRY [G21V], the protein stability index was found to be 2.3.

With YQGGPPRPPMGMRPPVMSQGTRY [G21T], the protein stability index was 2.74.

For the variant YQGGPPRPPMGMRPPVMSQSGRY [G20S], the protein stability index amounted to 1.67.

In the case of YQGGPPRPPMGMRPPVMSQRGRY [G20R], the protein stability index stood at 2.75.

Consider YQGGPPRPPMGMRPPVMSQEGRY [G20E], for which the protein stability index came out at 2.23.

Turning to YQGGPPRPPMGMRPPVMSQKGRY [G20K], the protein stability index is 2.16.

For YQGGPPRPPMGMRPPVMSQYGRY [G20Y], the protein stability index was found to be 1.68.

With YQGGPPRPPMGMRPPVMSQFGRY [G20F], the protein stability index came out at 1.88.

In the case of YQGGPPRPPMGMRPPVMSQWGRY [G20W], the protein stability index stood at 2.46.

YQGGPPRIPMGMRPPVMSQGGRY [P8I]: the protein stability index was found to be 2.2.

In the case of YQGGPPRHPMGMRPPVMSQGGRY [P8H], the protein stability index was 2.98.

As to YQGGPPRKPMGMRPPVMSQGGRY [P8K], the protein stability index is 2.35.

Take YQGGPPRAPMGMRPPVMSQGGRY [P8A]: the protein stability index stood at 1.09.

Take YQGGPPRNPMGMRPPVMSQGGRY [P8N]: the protein stability index was determined as 2.49.

As to YQGGPPRCPMGMRPPVMSQGGRY [P8C], the protein stability index is 1.

Consider YQGGPPRVPMGMRPPVMSQGGRY [P8V], for which the protein stability index was found to be 1.57.

Consider YQGGPPRSPMGMRPPVMSQGGRY [P8S], for which the protein stability index was determined as 1.95.

Turning to YQGGPPRPPMGMRPPVMSQGGRM [Y23M], the protein stability index was found to be 2.44.

On to YQGGPPRPPMGMRPPVMSQGGRT [Y23T], for which the protein stability index amounted to 1.9.

In the case of YQGGPPRPPMGMRPPVMSQGGRV [Y23V], the protein stability index came out at 1.5.

Consider YQGGPPRPPMGMRPPVMSQGGRL [Y23L], for which the protein stability index came out at 1.66.

For YQGGPPRPPMGMRPPVMSQGGRS [Y23S], the protein stability index was 2.43.
